The source of these data is patent US20220267462A1 (HARPOON THERAPEUTICS, published 2022).

Experiment [1] has as its target T1, human EpCAM protein (human, UniProt P16422 24-265, biotinylated in the Octet assays (site not stated)).
T1 construct: also called hu EpCAM; biotinylated human EpCAM protein
T1 sequence: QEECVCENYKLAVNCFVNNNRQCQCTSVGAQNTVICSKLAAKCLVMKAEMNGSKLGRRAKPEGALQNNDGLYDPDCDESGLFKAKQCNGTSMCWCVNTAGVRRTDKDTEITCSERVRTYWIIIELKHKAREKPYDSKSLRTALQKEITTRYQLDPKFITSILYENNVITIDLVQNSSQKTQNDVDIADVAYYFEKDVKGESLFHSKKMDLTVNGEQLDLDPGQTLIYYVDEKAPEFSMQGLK
As to the kind of experiment: colorimetric ELISA. From the text:
(§1) A phage display library for expression of heavy variable antibody domains was constructed from circulating B cells. See van der Linden, de Geus, Stok, Bos, van Wassenaar, Verrips, and Frenken. 2000. J Immunol Methods 240:185-195.

Experiment [2] addresses T2, cynomolgus EpCAM protein (cynomolgus, UniProt Q1WER1 27-265 (rhesus entry), limits assumed, biotinylated in the Octet assays (site not stated)).
T2 construct: also called cy EpCAM; biotinylated cynomolgus EpCAM protein
T2 sequence: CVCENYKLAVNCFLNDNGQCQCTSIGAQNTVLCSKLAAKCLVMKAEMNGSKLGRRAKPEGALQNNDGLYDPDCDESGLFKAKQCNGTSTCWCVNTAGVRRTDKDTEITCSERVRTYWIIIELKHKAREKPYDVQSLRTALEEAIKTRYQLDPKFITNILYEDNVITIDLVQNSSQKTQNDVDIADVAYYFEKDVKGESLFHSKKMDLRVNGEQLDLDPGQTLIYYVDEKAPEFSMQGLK
As to the kind of experiment: colorimetric ELISA.
Excerpt: as §1
For orientation: ELISA stands for enzyme-linked immunosorbent assay.

B1: EPL117 (VHH)
VHH: QVQLQESGGGLVQAGGSLRLSCAASGNIVRMTNMAWYRQAPGKQREFVATISAGGSTTYVDSVKDRFTISRDNTKNTVYLQMNYLKPEDTAVYYCATGSILTNRGAIPGSWGHGTQVTVSS
In the case of B1, the “Human EpCAM/Control” value in experiment [1] worked out at 4. For the same molecule, the “Cynomolgus EpCAM/Control” value in experiment [2] was 3.

B2: EPL78 (VHH)
VHH: QVQLQESGGGLVQPGGSLRLSCATSANRFNINVMGWYRQAPGQQRELVATINIGGSTDYADSVKGRFTISRDNAKNTVYLQLSDLKPEDTAVYYCNVKLRVSGPTGPNVYWGQGTQVTVSS
On to B2, for which the “Human EpCAM/Control” value in experiment [1] stood at 17. For the same molecule, the “Cynomolgus EpCAM/Control” value in experiment [2] turned out to be 11.

B3: EPL127 (VHH)
VHH: QVQLQESGGGLVQAGGSLRLSCAAPGFAFNDHAILWFRQAPGKEREGVSEICRDGTTYYTDSVKGRFTISSDNAKNTVYLQMNSVKTDDTAVYYCAVDRRRYYCSGNRAFSSDYYYWGQGTQVTVSS
On to B3, for which the “Human EpCAM/Control” value in experiment [1] worked out at 5. The “Cynomolgus EpCAM/Control” value in experiment [2] was determined as 11.

B4: EPL109 (VHH)
VHH: QVQLQESGGGLVQPGGSLRLSCASSGFTLDDYTIGWFRQAPGKEREGVSCISRRDDSTYYADSVKGRFTISRDNAKNTVDLQMISLRPEDTAVYYCAATPRSYTLRCLGKFDFQGQGTQVTVSS
Regarding B4, the “Human EpCAM/Control” value in experiment [1] came out at 5. The “Cynomolgus EpCAM/Control” value in experiment [2] came out at 2.

B5: EPL97 (VHH)
VHH: QVQLQESGGGLVQAGGSLRLSCAASGIIFRGTTMGWFRQAPGKQRESVASISPLGTTSYSGSVEGRFTVSRDNAKNTLFLQMNSLKSEDTAVYYCNAIQVTNVGPRVYWGQGTQVTVSS
Take B5: the “Human EpCAM/Control” value in experiment [1] stood at 8. In experiment [2], the “Cynomolgus EpCAM/Control” value was 5.

B6: EPL31 (VHH)
VHH: QVQLQESGGGLVHTGGSLRLSCAASGDTFLRYAMGWFRQAPGKEREFVAAITWNGGNTDYAGSLKGRFTISRDNTKNTVYLQMNSLKPEDTAVYYCAADLTFGLASSHYQYDYWGQGTQVTVSS
Take B6: the “Human EpCAM/Control” value in experiment [1] worked out at 7. The “Cynomolgus EpCAM/Control” value in experiment [2] came out at 6.

B7: EPL57 (VHH)
VHH: QVQLQESGGGLVHTGGSLRLSCAFSGDTFLRYAMGWFRQAPGKEREFVAAITWNGGNTDYADSLKGRFTISRDNTKNTVYLQMNSLRPEDTAVYYCAADLTFGLASSHYQYDYWGQGTQVTVSS
With B7, the “Human EpCAM/Control” value in experiment [1] was 14. Moreover, in experiment [2], the “Cynomolgus EpCAM/Control” value turned out to be 27.

B8: EPL136 (VHH)
VHH: QVQLQESGGGLVQPGGSLRLSCAASGDTFLRYAMGWFRQAPGKEREFVAAITWNGGNTDYAGSLKGRFTISRDNTKNTVYLQMNSLKPEDTAVYYCAADLTFGLASSHYQYDYWGQGTQVTVSS
Take B8: the “Human EpCAM/Control” value in experiment [1] amounted to 9. The “Cynomolgus EpCAM/Control” value in experiment [2] stood at 13.

B9: EPL55 (VHH)
VHH: QVQLQESGGGLVQAGGSLRLSCAASGDTFLRYAMGWFRQAPGKEREFVAAITWNGGNTDYAGSLKGRFTISRDNTKNTVYLQMNSLKPEDTAVYYCAADLTFGLASSHYQYDYWGQGTQVTVSS
Take B9: in experiment [1], the “Human EpCAM/Control” value amounted to 5. Besides, in experiment [2], the “Cynomolgus EpCAM/Control” value was 7.

B10: EPL189 (VHH)
VHH: QVQLQESGGGLVQPGGSLRLSCAASGRINSINTMGWYRQAPGNQRELVAEITRGGTTNYADSVQGRYAISRDNAKNLVYLQMNSLKPEDTDVYYCNAQTFPTFSRPTGLDYWGQGTQVTVSS
B10: in experiment [1], the “Human EpCAM/Control” value was 12. Also, the “Cynomolgus EpCAM/Control” value in experiment [2] is 8.

B11: EPL82 (VHH)
VHH: QVQLQESGGGLVQAGGSLKLSCTASGTILSTMAWYRQAPGKQRELVATISRGGTTNYSDSVKGRFAISRDSTKNTVYLQMNSLKPEDTAVYYCNTPLTDYGMGYNWGQGTQVTVSS
With B11, the “Human EpCAM/Control” value in experiment [1] worked out at 4. Moreover, the “Cynomolgus EpCAM/Control” value in experiment [2] was found to be 5.

B12: EPL58 (VHH)
VHH: QVQLQESGGGLVQAGGSLRLSCAASGPIFSDTIRTMGWYRQAAGKQRELVATIASFPSRTNYVDSVKGRFTISRDIAKNTVYLQMDSLKPEDTAVYYCNVDLASIPTKTYWGQGTQVTVSS
On to B12, for which the “Human EpCAM/Control” value in experiment [1] came to 8. Besides, in experiment [2], the “Cynomolgus EpCAM/Control” value worked out at 4.

B13: EPL2 (VHH)
VHH: QVQLQESGGGLVQPGGSLRLSCAASESISSFIAVGWYRQAPGKERELVAGINRSGFTYYTDSVKGRFSISRDNAKNTVLLQMTSLKPEDTAVYYCNAGGLYFSNAYTQGDYWGQGTQVTVSS
On to B13, for which the “Human EpCAM/Control” value in experiment [1] came to 15. For the same molecule, in experiment [2], the “Cynomolgus EpCAM/Control” value is 24.

B14: EPL43 (VHH)
VHH: QVQLQESGGGLVQTGGSLRLSCAASESISSFIAVGWYRQAPGKERELVAGINRSGFTYYTDSVKGRFSISRDNAKNTVLLQMTSLKPEDTAVYYCNAGGLYFSNAYTQGDYWGQGTQVTVSS
Turning to B14, the “Human EpCAM/Control” value in experiment [1] was 13. In experiment [2], the “Cynomolgus EpCAM/Control” value turned out to be 27.

B15: EPL83 (VHH)
VHH: QVQLQESGGGLVQAGGSLRLSCAVSGSIFSLNTLAWYRQAPGRQRDLIARITGGGTTVYADSVKGRFTISRDNAKNTVYLQMNSLKPEDTAVYYCNLMVRHPSGSTYEYWGQGTQVTVSS
With B15, in experiment [1], the “Human EpCAM/Control” value stood at 3. The “Cynomolgus EpCAM/Control” value in experiment [2] amounted to 2.

B16: EPL152 (VHH)
VHH: QVQLQESGGGLVQAGGSLRLSCVHSGSIFRASTMAWYRQAPGKQRELVAQIMSGGGTNYAGSVKGRFTISRDNANNTVYLQMNSLKPEDTAVYYCNAAQITSWGPKVYWGQGTQVTVSS
For B16, the “Human EpCAM/Control” value in experiment [1] came to 4. In experiment [2], the “Cynomolgus EpCAM/Control” value is 4.

B17: EPL126 (VHH)
VHH: QVQLQESGGGLVQAGGSLRLSCAASGFIFRAASMGWYRQSPGNERELVATINSGGFTNYADSVKGRFTISRDNAKNTGYLQMNSLKPEDTAVYFCAATFLRSDGQPPIWGQGTQVTVSS
In the case of B17, the “Human EpCAM/Control” value in experiment [1] was 5. The “Cynomolgus EpCAM/Control” value in experiment [2] worked out at 4.

B18: EPL118 (VHH)
VHH: QVQLQESGGGLVQAGGSLRLSCAASGFIFRAASMGWFRQSPGNERELVATVSSGDFTNYADSVKGRFTISRDNAKNTVYLQMNSLKPEDTAVYFCGATFVRSDGHHTIYGQGTQVTVSS
Consider B18, for which, in experiment [1], the “Human EpCAM/Control” value was determined as 5. The “Cynomolgus EpCAM/Control” value in experiment [2] came to 4.

B19: EPL90 (VHH)
VHH: QVQLQESGGGLVQAGGSLRLSCAASGFIFRAASMAWYRQSPGNERELVASISSGAFTNYADSVKARFTISRDNAKNTVYLQMNSLKPEDTAVYFCGATFLRSDGHHTINGQGTQVTVSS
notes: llama anti-EpCAM heavy chain only single domain antibody; tested as E. coli periplasmic extract
Regarding B19, in experiment [1], the “Human EpCAM/Control” value came to 10. Moreover, the “Cynomolgus EpCAM/Control” value in experiment [2] amounted to 10.

B20: EPL164 (VHH)
VHH: QVQLQESGGGLVQAGGSLRLSCAASGFIFRAASMDWYRQSPGTQPELVATISSTGFTNYANSVKGRFTISRDNAKNTVYLQMNSLKPEDTAVYFCGATFLRSDGQHSIYGQGTQVTVSS
Turning to B20, in experiment [1], the “Human EpCAM/Control” value came to 7. In experiment [2], the “Cynomolgus EpCAM/Control” value was 34.

B21: EPL120 (VHH)
VHH: QVQLQESGGGLVQAGGSLRLSCAASGFIFRAASISWYRQSPGNERELVATINSGGFTNYADSVLGRFTISRDNAKNTGYLQMNSLKPEDTAVYFCAATFLRSDGQPPIWGQGTQVTVSS
With B21, in experiment [1], the “Human EpCAM/Control” value was found to be 5. In experiment [2], the “Cynomolgus EpCAM/Control” value came out at 4.

B22: EPL49 (VHH)
VHH: QVQLQESGGGLVQAGGSLRLSCAPSGRTSSIFGMGWFRQAPGKEREFVASINWSGGSTSYADSVKGRFTISRDNAKNEMYLQMNSLKFEDTAVYVCAAAVLTNKPSWNFWGQGTQVTVSS
As for B22, the “Human EpCAM/Control” value in experiment [1] worked out at 8. In experiment [2], the “Cynomolgus EpCAM/Control” value worked out at 4.

B23: EPL10 (VHH)
VHH: QVQLQESGGGLVQAGGSLRLSCAASGSVFRANVMGWYRQAPGKQHELVARIDPGGTTTYADPVKGRFTISRDNAKKTVYLQMNSLKPDDTAVYYCNAIILLSGGPKDYWGQGTQVTVSS
Consider B23, for which the “Human EpCAM/Control” value in experiment [1] came to 12. For the same molecule, the “Cynomolgus EpCAM/Control” value in experiment [2] was determined as 9.

B24: EPL74 (VHH)
VHH: QVQLQESGGGLVQAGGSLRLSCAASGSIFGINAMGWYRQAPGKQRESVAFITIGGNTNYLDSVKGRFTISRDNAKNTVYLQMNGLKPEDTAVYYCNTNPPLILTAGGLYWGQGTQVTVSS
Take B24: in experiment [1], the “Human EpCAM/Control” value worked out at 10. Further, the “Cynomolgus EpCAM/Control” value in experiment [2] was found to be 5.

B25: EPL138 (VHH)
VHH: QVQLQESGGGLVQAGGSLRLSCAASGFIFRAASMDWYRQFPGNERESIATISSGGFTNYADSVKGRFTISRDNAKNTVYLQMNSLKPEDTAVYFCGATFLRSDGHHTINGQGTQVTVSS
As to B25, the “Human EpCAM/Control” value in experiment [1] was 3. For the same molecule, the “Cynomolgus EpCAM/Control” value in experiment [2] was 3.
